From paper PMC6579470, “A low-potential terminal oxidase associated with the iron-only nitrogenase from the nitrogen-fixing bacterium Azotobacter vinelandii” (The Journal of Biological Chemistry, 2019)

How the values were obtained:
[1] = target: Anf3 from Azotobacter vinelandii (Azotobacter vinelandii); test: crystal structure; hanging-drop vapor diffusion, 25.5% PEG 4000, 170 mM ammonium sulfate, 16 °C; space group P2(1); the asymmetric unit contains a dimer
Anf3 = target: T1, Anf3 (Azotobacter vinelandii, UniProt C1DK98); test: X-ray crystal structure of the complex; assay type: binding; details: protein isolated with bound FAD; FAD stacks on heme; crystals at 16 °C, 25.5% PEG 4000, 170 mM ammonium sulfate
T1 construct: gene Avin_49040; full-length anf3, N-terminal His6 tag cut off with thrombin; E. coli KRX; intertwined homodimer; cofactors contact both monomers
T1 sequence (C1DK98 entry or part of it): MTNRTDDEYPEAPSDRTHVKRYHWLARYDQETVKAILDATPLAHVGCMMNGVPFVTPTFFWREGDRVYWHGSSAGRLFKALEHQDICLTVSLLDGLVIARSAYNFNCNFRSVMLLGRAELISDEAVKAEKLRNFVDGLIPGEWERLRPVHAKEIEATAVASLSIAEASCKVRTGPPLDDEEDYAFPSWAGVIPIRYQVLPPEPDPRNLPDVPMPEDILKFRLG

| stoichiometry N [1] | Compound | X-ray crystal structure of the complex (Anf3) |
| --- | --- | --- |
| 2 | Anf3 from Azotobacter vinelandii (enzyme) |  |
|  | Cc1cc2nc3c(=O)[nH]c(=O)nc-3n(C[C@H](O)[C@H](O)[C@H](O)COP(=O)(O)OP(=O)(O)OC[C@H]3O[C@@H](n4cnc5c(N)ncnc54)[C@H](O)[C@@H]3O)c2cc1C [FAD] | Each monomer core is a split-barrel flavin-binding domain that binds an FAD |
